The values below come from publication PMC2064162 (The Journal of Cell Biology, 2006).

The assay deals with Sar1p (yeast, UniProt P20606 1-190). The assay can be described thus: pull-down.
Sar1p, sequence (P20606 whole entry): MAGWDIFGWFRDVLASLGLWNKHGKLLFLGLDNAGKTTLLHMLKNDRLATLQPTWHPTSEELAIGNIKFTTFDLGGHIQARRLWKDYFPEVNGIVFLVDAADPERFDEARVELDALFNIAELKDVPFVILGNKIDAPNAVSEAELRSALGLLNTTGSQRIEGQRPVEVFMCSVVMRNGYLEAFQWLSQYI

For MRRRSRC [GalNAcT2 cytoplasmic domain peptide (wild type, MRRRSRC)], the binding result was “binds”.
